# The DeepSol protein solubility set
# Assay: soluble on expression in E. coli; label from the status in PepcDB or PDB records
row,Sequence,soluble on expression in E. coli
1,MAPPSDSDPREPSPPLFQGRGLTKRFGSFVANQAIDLDIAGGEVHALLGENGAGKSTLVKLITGLLQPDDGRMIWRGTPISFAGPAEARACGIAAVSQHFALFDNLTVVENVALGLDRRISVGRLATELEQISQRYGLPLDPKREVWRLSVGERQRIEIVRALLQNPQLLILDEPTAVLTPAEADRLFDVLQRLRADGRALLYISHKLDEVKRLASVATILRAGRVVGSCDPRQESAASMARMMVGSDVTAPKQSSHSIGGPLLSVSGLTQRPDDPHGVTLRDIALEVRSGEIVGIAGVAGNGQDELFAALSGETPIAQSDVIHIAGEAAGSLSINQRRRLGAAFVPEQRLGHATVPTMSLSDNALLTGHATGALVKFGLVNRGAALALVDRVSEAFDVRKASRDPEAARLSGGNLQKFIVGREILRQPRLLIVDQPSWGLDAGAASAIRQALLDLAASGAAVLVISQDLDELIEIADRIAVMFHGRLSPPRPVSEIGRDQLGLLMGGSGWPAEVRDVAGALEHHHHHH,not soluble
2,MAPQSNNSTTFVSKTQHYLKVKKPLLERQRRARMNKCLDTLKTLVAEFQGDDAILRMDKAEMLEAALVFMRKQVVKQQAPVSPLPMDSFKNGYMNAVSEISRVMACTPAMSVDVGKTVMTHLGVEFQRMLQADQVQTSVTTSTPRPLSPASSGYHSDNEDSQSAASPKPVEETMWRPWLEHHHHHH,not soluble
3,MAPSSRWDAMGPKNSYRSVHGRIVPELLESSVARVRPLQYVQRQPSQASARSGANPTHRPSAEVRPVIRTGEMTHSSVIPPLAPGVRRVSLGYESSPSGSLPPLFNQESPWRRQDSYSPQNPAVSHKASLNSTILQGPADAGVVGGQSWNRAWEPARGAASWDTWRNKAVVPPRRSGEPMVSMQAAEEIRILAVITIQAGVRGYLARRRIRLWHRGAMVIQATWRGYRVRRNLAHLCRATTTIQSAWRGYSTRRDQARHWQMLHPVTWVELGSRAGVMSDRSWFQDGRARTVSDHRCFQSCQAHACSVCHSLSSRIGSPPSVVMLVGSSPRTCHTCGRTQPTRVVQGMGQGTEGPGAVSWASAYQLAALSPRQPHRQDKAATAIQSAWRGFKIRQQMRQQQMAAKIVQATWRGHHTRSCLKNTEALLGPADPSASSRHMHWPGI,not soluble
4,MAPTNLTKKPSQYKQSSRKGKKAWRKNIDLSDVEQYMEKKIDHEITHGTSDITSLQNDALFHVDVEGDEILKNKLIKRKQIKKVLKSKEILDAVKTNSKIAALNHHKNSSGNPNKIQGVSKHELKKLMALAGRVHGESKIKNRVAKDGLVKTTAGDLWGEESNSKKQKVKLPSGIKLDVEKKDQIPEELLKKSTTSWSTASVRPSTLDIEPIAVKEFTEIPHAGKSYNPNNKAWSELINKEYKEEKAREDERIALEKYKERIRHLMETLDDNEEEESSSNEEEEEEEEENENENESTQCSGSDKEIKLSINKPVKNKKKTKYQRNKAKRHEEKVKLQQELKELRQRVKDLEEVINSEETEILSAIESDSNKVKKSKKNKKHKLGTKYSVIDERLEIKFSDELSDSLRKLKPEGNLLYDTVRKLQSSGKVETRVPVRKGRKYKQKITEKWTHKDFK,not soluble
5,MAPTPKFGPKKIQNVSAVSCSVKKYQASTSSPVPILNVQERVELRKLEQMLPVSPKNCDPADVVLRAASYIDQLVATVQARVKNGTLPMGALSSLPPQYSKPIKSSRRTVSSKKSRRSMEKKR,not soluble
6,MAPTRAVIPDDFELPVDAFDIPICYDGDLSGVVIPEGLVRDRVRRLAKDIHAEIGNKPIALLCVLKGSYKFFTALVEELTNARSSCPEPMTVDFIRVKSYEDQMSTGQIQIMGLSNLDELKGKSVLVVDDISDTGRTLAKLLSTLHETGVEKTWTALLLSKRVKRVVDVPEDFVAFEIPDKFIVGYGLDYNQKFRDLGHICVMSPAGIEKYKSE,not soluble
7,MAPVLENRRARHDYEILETYEAGIALKGTEVKSLRAGKVDFTGSFARFEDGELYLENLYIAPYEKGSYANVDPRRKRKLLLHKHELRRLLGKVEQKGLTLVPLKIYFNERGYAKVLLGLARGKKAYEKRREDKKEAVRRALEEL,soluble
8,MAPWIGGKRNLARRICAILDRSPCLTYAEPFVGMAGIFLRRSSRPRAEVINDRGRDVANLFRILQRHYPQFLDTLRFQLTTRAEFERLGATDPDTLTDLERAARFLYLQRTAFGGKVSGRNFGVSSHRPGRFNLTTLEPMLEDLHSRLAGVIVECLDWADFLARYDRPETLFYLDPPYWGSETDYGRGLFQREDFGLMAERLAKLQGRFLLSINDVPQIRAIFGRFRITEVTTTYSISGSAKGNGTARPELLVSNWDIGEEG,not soluble
9,MAQHVKKPEWLKIRLGGNEKFTETKSIVEGHCLHTICTSGKCPNMGECWSRGTATFMIGGDICTRACRFCNTLTGRPKPLNEAEPTHVALSIKLMGLNHAVVTSVDRDDLPDYGAAHWVKTIQEIRRINSGVTLEVLIPDFKGRMDLVDMIIEASPDVISHNLETVRRLTPSVRSVATYDTSLAVLRHIAQSGKMPAKTGMMLGLGETEEEILELMDDALAAGVSVITIGQYLQPSRKNLPVVEYITPEQFEHLRLVGIEKGFRTIESAPLVRSSYHAERHL,not soluble
10,MAQKPLRLLACGDVEGKFDILFNRVQAIQKKSGNFDLLLCVGNFFGSTQDAEWEEYKTGIKKVPIQTYVLGANNQETVKYFQDADGCELAENITYLGRKGIFTGSSGLQIVYLSGTESLNEPVPGYSFSPKDVSSLRMMLCTTSQFKGVDILLTSPWPKCVGNFGNSSGEVDTKKCGSALVSSLATGLKPRYHFAALEKTYYERLPYRNHIILQENAQHATRFIALANVGNPEKKKYLYAFSIVPMKLMDAAELVKQPPDVTENPYRKSGQEASIGKQILAPVEESACQFFFDLNEKQGRKRSSTGRDSKSSPHPKQPRKPPQPPGPCWFCLASPEVEKHLVVNIGTHCYLALAKGGLSDDHVLILPIGHYQSVVELSAEVVEEVEKYKATLRRFFKSRGKWCVVFERNYKSHHLQLQVIPVPISCSTTDDIKDAFITQAQEQQIELLEIPEHSDIKQIAQPGAAYFYVELDTGEKLFHRIKKNFPLQFGREVLASEAILNVPDKSDWRQCQISKEDEETLARRFRKDFEPYDFTLDD,soluble
11,MAQMTMIQAITDALRVEMKNDPNVLVFGEDVGVNGGVFRATEGLQAEFGEDRVMDTPLAESGIGGLAVGLALEGFRPVPEIQFFGFVYEVMDSISGQLARMRYRSGGRWTAPVTVRSPFGGGVHTPELHADSLEGLVAQQPGLKVVIPSTPYDAKGLLISAIRDNDPVIYLEHMKLYRSFRQDVPEGEYTIDLGKADIKREGTDVSVIAYGAMVHAALKAAEELEKEGISLEVVDLRTVQPLDIETIIASVEKTGRVVVVQEAQKQAGIAANVVAEINDRAILNLEAPVVRVAAADTVFPFSQAESVWLPNHKDIVEAVNKVMNF,not soluble
12,MAQVSTTAGGAVGVNRSQSMLLSSQEVEQMSAKSYAGELQKARAAGRLNTDPALTARVRRVSQRLIAQTPSFRPDARNWRWEVNVLTTDDMNAYAMAGGKIMVYTGLVKQLKLSDAELAAVIGHEISHALREHTRENMSQAYAQQMGLGLVGALVGLNDSQLKLASLVGDVTLSKPHSRTMESEADIMGLELMARAGYDPNAAVNVWQKMQAAGGGGGMEFLSTHPSGPTRIRDLQAHIPQVWPLYQAAPKKGLEHHHHHH,not soluble
13,MARINRISITLCALLFTTLPLTPMAHASKQARESSATTHITKKADKKKSTATTKKTQKTAKKAASKSTTKSKTASSVKKSSITASKNAKTRSKHTVNKTASASLTEKCTKRKGYKSHCVKVKNAASGTLADAHKAKVQKATKVAMNKLMQQIGKPYRWGGSSPRTGFDCSGLVYYAYKDLVKIRIPRTANEMYHLRDAAPIERSELKNGDLVFFRTQGRGTADHVGVYVGNGKFIQSPRTGQEIQITSLSEDYWQRHYVGARRVMTPKTLR,soluble
